In PMC2935386:

Molecular target: fluorescein-labelled zinc finger region of GATA2 (GATA2-Zf), residues 291-412 (UniProt P23769)
Experiment: fluorescence polarisation; fluorescence anisotropy; 10nM fluorescein-labeled GATA2-Zf titrated with unlabeled, unliganded TR DBD-LBD or TR DBD, 1nM to 10.000nM; 10°C, 50mM NaCl, 20mM Hepes pH8.0, 3mM dithiothreitol, 5% glycerol

Sequence of fluorescein-labelled zinc finger region of GATA2 (GATA2-Zf), residues 291-412 (P23769 291-412): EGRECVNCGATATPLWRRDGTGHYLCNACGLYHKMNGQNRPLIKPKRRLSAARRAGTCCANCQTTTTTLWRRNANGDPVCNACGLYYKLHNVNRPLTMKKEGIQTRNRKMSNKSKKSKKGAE

Kd: 1930 nM
Substance: human TRβ1ΔAB/EF (TR DBD), thyroid hormone receptor β1 residues 102-198, poly-histidine construct (from UniProt P10828-1 102-198) (domain or fragment)
